± gives the uncertainty stated by the source.
B1: POU domain, class 3, transcription factor 3, residues 408 to 463; numbered along this chain, P20264 (parent)
chain: KKRTSIEVSVKGALESHFLKCPKPSAQEITNLADSLQLEKEVVRVWFCNRRQKEKR

Variants of: B1
Assay: abundance fitness (aPCA) (normalised: wild type 0, dead -1); higher = more abundant; growth selection in yeast, the domain comes from the species named
Settings: Homo sapiens

Point of comparison: K55G, abundance fitness 0.053 ± 0.074. Against it:
- K55E — within error, 0.024 ± 0.11
- K55D — within error, -0.079 ± 0.12
- K55W — within error, -0.129 ± 0.12
- K55M — within error, -0.096 ± 0.1
- K55I — lower, -0.234 ± 0.15
- K55L — within error, -0.006 ± 0.087
- K55R — within error, -0.089 ± 0.075
- K55V — within error, -0.031 ± 0.081
- K55S — within error, -0.011 ± 0.098
- K55Q — within error, -0.132 ± 0.16
- K55C — within error, -0.14 ± 0.13
- K55F — lower, -0.312 ± 0.17
- K55H — within error, -0.122 ± 0.19
- K55A — within error, -0.038 ± 0.098
- K55T — within error, -0.095 ± 0.099
- K55P — lower, -0.265 ± 0.16
- K55N — within error, 0.021 ± 0.14
- R56C — lower, -0.435 ± 0.25
- R56S — within error, -0.151 ± 0.27
- R56H — within error, -0.277 ± 0.41
- R56E — within error, 0.093 ± 0.17
- R56N — within error, -0.143 ± 0.45
- R56M — within error, 0.002 ± 0.31
- R56A — within error, -0.046 ± 0.12
- R56V — within error, -0.039 ± 0.081
- R56W — lower, -0.272 ± 0.13
- R56D — within error, -0.247 ± 0.26
- R56T — within error, -0.05 ± 0.2
- R56G — within error, -0.068 ± 0.086
- R56P — within error, -0.226 ± 0.29
- E54T — lower, -0.281 ± 0.11
- E54K — lower, -0.658 ± 0.15
- E54N — lower, -0.474 ± 0.2
- E54M — within error, -0.148 ± 0.15
- E54S — lower, -0.365 ± 0.081
- E54C — lower, -0.366 ± 0.14
- E54I — lower, -0.748 ± 0.18
- E54D — within error, 0.058 ± 0.11
- E54G — lower, -0.234 ± 0.079
- E54V — lower, -0.252 ± 0.075
- E54L — lower, -0.365 ± 0.08
- E54R — lower, -0.485 ± 0.078
- E54F — lower, -0.598 ± 0.14
- E54H — lower, -0.432 ± 0.18
- E54P — lower, -0.543 ± 0.15
- E54Q — lower, -0.241 ± 0.12
